The target of experiment [1] is human insulin receptor (IR), CHO cell line overexpressing human IR (pAkt assay) (human) (UniProt P06213). The experiment is described as follows: cell-based or functional assay.
Experiment [2] deals with minipig insulin receptor (IR) (minipig). Put plainly: cell-based or functional assay.

With Insulin degludec (ligand), in experiment [1], the Insulin Receptor pAK Assay EC50, Human turned out to be 0.48 nM. Substance Insulin levemir (ligand) displayed an Insulin Receptor pAK Assay EC50, Human in experiment [1] of 0.51 nM. Also, the Insulin Receptor pAK Assay EC50, Minipig in experiment [2] amounted to 0.5 nM.

The record behind these values is patent publication US20190175744A1, “INSULIN-INCRETIN CONJUGATES” (Merck Sharp & Dohme Corp., priority 2016, published 2019).
